The data set deals with the molecule itself. Nature of the data set: TIRF microscopy of filament polymerisation.

B1: Cdc11-containing septin complex (Cdc10, Cdc3, Cdc12, Cdc11), wild type (complex)
chain 1: MSAATATAAPVPPPVGISNLPNQRYKIVNEEGGTFTVMLCGESGLGKTTFINTLFQTVLKRADGQQHRQEPIRKTVEIDITRALLEEKHFELRVNVIDTPGFGDNVNNNKAWQPLVDFIDDQHDSYMRQEQQPYRTKKFDLRVHAVLYFIRPTGHGLKPIDIETMKRLSTRANLIPVIAKADTLTAQELQQFKSRIRQVIEAQEIRIFTPPLDADSKEDAKSGSNPDSAAVEHARQLIEAMPFAIVGSEKKFDNGQGTQVVARKYPWGLVEIENDSHCDFRKLRALLLRTYLLDLISTTQEMHYETYRRLRLEGHENTGEGNEDFTLPAIAPARKLSHNPRYKEEENALKKYFTDQVKAEEQRFRQWEQNIVNERIRLNGDLEEIQGKVKKLEEQVKSLQVKKSHLK
chain 2: MDPLSSVQPASYVGFDTITNQIEHRLLKKGFQFNIMVVGQSGLGKSTLINTLFASHLIDSATGDDISALPVTKTTEMKISTHTLVEDRVRLNINVIDTPGFGDFIDNSKAWEPIVKYIKEQHSQYLRKELTAQRERFITDTRVHAILYFLQPNGKELSRLDVEALKRLTEIANVIPVIGKSDTLTLDERTEFRELIQNEFEKYNFKIYPYDSEELTDEELELNRSVRSIIPFAVVGSENEIEINGETFRGRKTRWSAINVEDINQCDFVYLREFLIRTHLQDLIETTSYIHYEGFRARQLIALKENANSRSSAHMSSNAIQR
chain 3: MSLKEEQVSIKQDPEQEERQHDQFNDVQIKQESQDHDGVDSQYTNGTQNDDSERFEAAESDVKVEPGLGMGITSSQSEKGQVLPDQPEIKFIRRQINGYVGFANLPKQWHRRSIKNGFSFNLLCVGPDGIGKTTLMKTLFNNDDIEANLVKDYEEELANDQEEEEGQGEGHENQSQEQRHKVKIKSYESVIEENGVKLNLNVIDTEGFGDFLNNDQKSWDPIIKEIDSRFDQYLDAENKINRHSINDKRIHACLYFIEPTGHYLKPLDLKFMQSVYEKCNLIPVIAKSDILTDEEILSFKKTIMNQLIQSNIELFKPPIYSNDDAENSHLSERLFSSLPYAVIGSNDIVENYSGNQVRGRSYPWGVIEVDNDNHSDFNLLKNLLIKQFMEELKERTSKILYENYRSSKLAKLGIKQDNSVFKEFDPISKQQEEKTLHEAKLAKLEIEMKTVFQQKVSEKEKKLQKSETELFARHKEMKEKLTKQLKALEDKKKQLELSINSASPNVNHSPVPTKKKGFLR
chain 4: MSGIIDASSALRKRKHLKRGITFTVMIVGQSGSGRSTFINTLCGQQVVDTSTTILLPTDTSTEIDLQLREETVELEDDEGVKIQLNIIDTPGFGDSLDNSPSFEIISDYIRHQYDEILLEESRVRRNPRFKDGRVHCCLYLINPTGHGLKEIDVEFIRQLGSLVNIIPVISKSDSLTRDELKLNKKLIMEDIDRWNLPIYNFPFDEDEISDEDYETNMYLRTLLPFAIIGSNEVYEMGGDVGTIRGRKYPWGILDVEDSSISDFVILRNALLISHLHDLKNYTHEILYERYRTEALSGESVAAESIRPNLTKLNGSSSSSTTTRRNTNPFKQSNNINNDVLNPASDMHGQSTGENNETYMTREEQIRLEEERLKAFEERVQQELLLKRQELLQREKELREIEARLEKEAKIKQEE
As to B1, the binding result is on record as “binds”.

B2: Cdc11 D65T septin complex (Cdc10, Cdc3, Cdc12, Cdc11 D65T-GFP) (complex)
chain 1: MSAATATAAPVPPPVGISNLPNQRYKIVNEEGGTFTVMLCGESGLGKTTFINTLFQTVLKRADGQQHRQEPIRKTVEIDITRALLEEKHFELRVNVIDTPGFGDNVNNNKAWQPLVDFIDDQHDSYMRQEQQPYRTKKFDLRVHAVLYFIRPTGHGLKPIDIETMKRLSTRANLIPVIAKADTLTAQELQQFKSRIRQVIEAQEIRIFTPPLDADSKEDAKSGSNPDSAAVEHARQLIEAMPFAIVGSEKKFDNGQGTQVVARKYPWGLVEIENDSHCDFRKLRALLLRTYLLDLISTTQEMHYETYRRLRLEGHENTGEGNEDFTLPAIAPARKLSHNPRYKEEENALKKYFTDQVKAEEQRFRQWEQNIVNERIRLNGDLEEIQGKVKKLEEQVKSLQVKKSHLK
chain 2: MDPLSSVQPASYVGFDTITNQIEHRLLKKGFQFNIMVVGQSGLGKSTLINTLFASHLIDSATGDDISALPVTKTTEMKISTHTLVEDRVRLNINVIDTPGFGDFIDNSKAWEPIVKYIKEQHSQYLRKELTAQRERFITDTRVHAILYFLQPNGKELSRLDVEALKRLTEIANVIPVIGKSDTLTLDERTEFRELIQNEFEKYNFKIYPYDSEELTDEELELNRSVRSIIPFAVVGSENEIEINGETFRGRKTRWSAINVEDINQCDFVYLREFLIRTHLQDLIETTSYIHYEGFRARQLIALKENANSRSSAHMSSNAIQR
chain 3: MSLKEEQVSIKQDPEQEERQHDQFNDVQIKQESQDHDGVDSQYTNGTQNDDSERFEAAESDVKVEPGLGMGITSSQSEKGQVLPDQPEIKFIRRQINGYVGFANLPKQWHRRSIKNGFSFNLLCVGPDGIGKTTLMKTLFNNDDIEANLVKDYEEELANDQEEEEGQGEGHENQSQEQRHKVKIKSYESVIEENGVKLNLNVIDTEGFGDFLNNDQKSWDPIIKEIDSRFDQYLDAENKINRHSINDKRIHACLYFIEPTGHYLKPLDLKFMQSVYEKCNLIPVIAKSDILTDEEILSFKKTIMNQLIQSNIELFKPPIYSNDDAENSHLSERLFSSLPYAVIGSNDIVENYSGNQVRGRSYPWGVIEVDNDNHSDFNLLKNLLIKQFMEELKERTSKILYENYRSSKLAKLGIKQDNSVFKEFDPISKQQEEKTLHEAKLAKLEIEMKTVFQQKVSEKEKKLQKSETELFARHKEMKEKLTKQLKALEDKKKQLELSINSASPNVNHSPVPTKKKGFLR
chain 4: MSGIIDASSALRKRKHLKRGITFTVMIVGQSGSGRSTFINTLCGQQVVDTSTTILLPTDTSTEITLQLREETVELEDDEGVKIQLNIIDTPGFGDSLDNSPSFEIISDYIRHQYDEILLEESRVRRNPRFKDGRVHCCLYLINPTGHGLKEIDVEFIRQLGSLVNIIPVISKSDSLTRDELKLNKKLIMEDIDRWNLPIYNFPFDEDEISDEDYETNMYLRTLLPFAIIGSNEVYEMGGDVGTIRGRKYPWGILDVEDSSISDFVILRNALLISHLHDLKNYTHEILYERYRTEALSGESVAAESIRPNLTKLNGSSSSSTTTRRNTNPFKQSNNINNDVLNPASDMHGQSTGENNETYMTREEQIRLEEERLKAFEERVQQELLLKRQELLQREKELREIEARLEKEAKIKQEE
B2: the binding result is “binds”.

B3: Cdc12 T75A septin complex (Cdc10, Cdc3, Cdc12 T75A, Cdc11) (complex)
chain 1: MSAATATAAPVPPPVGISNLPNQRYKIVNEEGGTFTVMLCGESGLGKTTFINTLFQTVLKRADGQQHRQEPIRKAVEIDITRALLEEKHFELRVNVIDTPGFGDNVNNNKAWQPLVDFIDDQHDSYMRQEQQPYRTKKFDLRVHAVLYFIRPTGHGLKPIDIETMKRLSTRANLIPVIAKADTLTAQELQQFKSRIRQVIEAQEIRIFTPPLDADSKEDAKSGSNPDSAAVEHARQLIEAMPFAIVGSEKKFDNGQGTQVVARKYPWGLVEIENDSHCDFRKLRALLLRTYLLDLISTTQEMHYETYRRLRLEGHENTGEGNEDFTLPAIAPARKLSHNPRYKEEENALKKYFTDQVKAEEQRFRQWEQNIVNERIRLNGDLEEIQGKVKKLEEQVKSLQVKKSHLK
chain 2: MDPLSSVQPASYVGFDTITNQIEHRLLKKGFQFNIMVVGQSGLGKSTLINTLFASHLIDSATGDDISALPVTKTTEMKISTHTLVEDRVRLNINVIDTPGFGDFIDNSKAWEPIVKYIKEQHSQYLRKELTAQRERFITDTRVHAILYFLQPNGKELSRLDVEALKRLTEIANVIPVIGKSDTLTLDERTEFRELIQNEFEKYNFKIYPYDSEELTDEELELNRSVRSIIPFAVVGSENEIEINGETFRGRKTRWSAINVEDINQCDFVYLREFLIRTHLQDLIETTSYIHYEGFRARQLIALKENANSRSSAHMSSNAIQR
chain 3: MSLKEEQVSIKQDPEQEERQHDQFNDVQIKQESQDHDGVDSQYTNGTQNDDSERFEAAESDVKVEPGLGMGITSSQSEKGQVLPDQPEIKFIRRQINGYVGFANLPKQWHRRSIKNGFSFNLLCVGPDGIGKTTLMKTLFNNDDIEANLVKDYEEELANDQEEEEGQGEGHENQSQEQRHKVKIKSYESVIEENGVKLNLNVIDTEGFGDFLNNDQKSWDPIIKEIDSRFDQYLDAENKINRHSINDKRIHACLYFIEPTGHYLKPLDLKFMQSVYEKCNLIPVIAKSDILTDEEILSFKKTIMNQLIQSNIELFKPPIYSNDDAENSHLSERLFSSLPYAVIGSNDIVENYSGNQVRGRSYPWGVIEVDNDNHSDFNLLKNLLIKQFMEELKERTSKILYENYRSSKLAKLGIKQDNSVFKEFDPISKQQEEKTLHEAKLAKLEIEMKTVFQQKVSEKEKKLQKSETELFARHKEMKEKLTKQLKALEDKKKQLELSINSASPNVNHSPVPTKKKGFLR
chain 4: MSGIIDASSALRKRKHLKRGITFTVMIVGQSGSGRSTFINTLCGQQVVDTSTTILLPTDTSTEIDLQLREETVELEDDEGVKIQLNIIDTPGFGDSLDNSPSFEIISDYIRHQYDEILLEESRVRRNPRFKDGRVHCCLYLINPTGHGLKEIDVEFIRQLGSLVNIIPVISKSDSLTRDELKLNKKLIMEDIDRWNLPIYNFPFDEDEISDEDYETNMYLRTLLPFAIIGSNEVYEMGGDVGTIRGRKYPWGILDVEDSSISDFVILRNALLISHLHDLKNYTHEILYERYRTEALSGESVAAESIRPNLTKLNGSSSSSTTTRRNTNPFKQSNNINNDVLNPASDMHGQSTGENNETYMTREEQIRLEEERLKAFEERVQQELLLKRQELLQREKELREIEARLEKEAKIKQEE
For the protein B3, the binding result was “binds”.

The values are drawn from article doi:10.1101/209643 (bioRxiv, 2017).
